Test results from the supplement of paper PMC10126150.
± gives the standard deviation of the averaged measurements.

test system: ATP; assay: switch fluorescence ratio, 500 uM ATP over buffer (Cy3 cluster intensity, sum of 5 cycles each) (fold (ratio)); higher = stronger signal-on switching upon ATP binding; sequences stand for … in TCGTCGGCAGCGTCAGATGTGTATAAGAGACAGTTTTTTTTTTTTTTTTTTTTTTTTT…TC; conditions: aptamer strand: ATP DNA aptamer (quencher-CACCTGGGGGAGTATTGCGGAGGAAGG + anchor), 100 nM annealed; ATP concentration: 500 uM
Summary of the method: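 After annealing to 100 nM quencher-labelled ATP aptamer, Cy3-labelled switching-strand clusters on a modified Illumina MiSeq flow-cell were imaged in selection buffer. A second image followed after 15 min with 500 uM ATP at 22 °C, and five such buffer/ATP cycles were done, each separated by NaOH stripping and re-annealing. The fluorescence ratio, averaged per switch-domain sequence, is summed target-cycle over summed buffer-cycle Cy3 intensity per cluster, with clusters outside 100-1000 RFU excluded.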
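Also: ATP exposure 15 min at 22 °C before imaging.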

| Sequence | switch fluorescence ratio |
| --- | --- |
| TTATGTGAGG | 0.977 ± 0.034 |
| AGTCGACGTA | 1.04 ± 0.089 |
| GGAAATGTTT | 1.01 ± 0.026 |
| TATGGGGGGG | 0.994 ± 0.038 |
| TTTGGGGCTT | 1 ± 0.04 |
| CGCGGGGTAA | 1.04 ± 0.011 |
| TGTTGCTAGG | 0.992 ± 0.031 |
| CACGGGCCCT | 1.02 ± 0.017 |
| GGATGGCATG | 0.979 ± 0.039 |
| GCGAATGTTT | 0.9812 ± 0.0029 |
| TGCGGGGGCA | 1.02 ± 0.025 |
| GGGGGAGTGC | 1.06 ± 0.12 |
| TTATGTGGGA | 0.975 ± 0.037 |
| CCTGTTTTTA | 0.986 ± 0.024 |
| TTCACGGGGG | 1.018 ± 0.0078 |
| ACGGTTAGTG | 1.01 ± 0.018 |
| AGCGAGGGA | 1.029 ± 0.0068 |
| GACTTTGTAC | 1.06 ± 0.014 |
| CCCTTAGTGT | 1.04 ± 0.031 |
| AAGCCGGATG | 1.005 ± 0.0095 |
| GGGCACTTTG | 1.0204 ± 0.00091 |
| CTTTATATAC | 1.35 ± 0.025 |
| TATCATTAGA | 1.01 ± 0.014 |
| CATGGGGGTG | 1 ± 0.021 |
| TACTATTATC | 1.0537 ± 0.00026 |

| Sequence | switch fluorescence ratio |
| --- | --- |
| AAAAGAGATT | 0.995 ± 0.013 |
| TTTCAGTATT | 1.01 ± 0.029 |
| TTATGCACGG | 1.01 ± 0.044 |
| ATGTCATATG | 0.994 ± 0.031 |
| CAAGGTCGTA | 1 ± 0.029 |
| TTATAATTAT | 1.09 ± 0.092 |
| GATCATTGAG | 0.991 ± 0.012 |
| TGTGTGTGGT | 1.006 ± 0.0062 |
| TTTTTTACTT | 1.03 ± 0.054 |
| GTGGAAGGTA | 0.991 ± 0.011 |
| TATTTTATGG | 0.998 ± 0.025 |
| CAACGGGGCG | 0.999 ± 0.028 |
| GGGGGTGAAG | 0.971 ± 0.016 |
| TGGGAGACAA | 0.9815 ± 0.001 |
| GGTTCAGCCT | 1.01 ± 0.018 |
| TCGAAAATCG | 1 ± 0.049 |
| AGTCTGTGCT | 0.97353 ± 0.00097 |
| ACACAGGGGG | 1.0997 ± 0.00043 |
| TGGTATAGGC | 1.04 ± 0.027 |
| GATTTTGCCG | 1.11 ± 0.1 |
| AGGCAGGAGG | 1 ± 0.015 |
| AGGGGTTGGG | 0.992 ± 0.061 |
| TTACTTGCGT | 1.06 ± 0.035 |
| CAGGTATTCA | 1.0177 ± 8.3e-05 |
| CTGGTTCGGT | 1.01 ± 0.037 |

| Sequence | switch fluorescence ratio |
| --- | --- |
| TTGAAGGTCT | 1 ± 0.05 |
| GAGTGAGTTA | 0.977 ± 0.032 |
| AGATGGAGCT | 0.9875 ± 0.0055 |
| TCGGGGTTTG | 1 ± 0.016 |
| TCCGCGGCTT | 2.12 ± 1.5 |
| TTTAGCTTAA | 0.986 ± 0.021 |
| GTGTTTATGA | 1.06 ± 0.053 |
| TATGCTAACT | 1 ± 0.051 |
| AGGAGGAAAG | 0.987 ± 0.028 |
| AGGGACAGGG | 1.02 ± 0.05 |
| GGGGTAGGGG | 1.01 ± 0.026 |
| ACTTTGGCC | 1.0113 ± 0.00058 |
| GCTTCAGTGA | 1.02 ± 0.019 |
| TGTGTTAGAA | 1.01 ± 0.015 |
| TCGTAAACTT | 1.025 ± 0.005 |
| CTTGTGAACG | 0.993 ± 0.036 |
| TTGATGAAGT | 1.01 ± 0.031 |
| CGAGGCATTA | 4.8 ± 1.4 |
| TAGGCTGGGT | 0.992 ± 0.014 |
| CGGTGGCAGC | 0.983 ± 0.038 |
| ATGGAGTGG | 1 ± 0.049 |
| TACCAAAAAA | 1.2 ± 0.18 |
| GGGGCAGGAG | 1.01 ± 0.06 |
| CTGCGAGGGG | 1 ± 0.016 |
| ATGGCTGGCT | 1.04 ± 0.041 |

| Sequence | switch fluorescence ratio |
| --- | --- |
| TCTTGAAGGT | 0.985 ± 0.0053 |
| GGCTTTTGTA | 0.972 ± 0.019 |
| TGGTTAACGC | 0.999 ± 0.013 |
| GGATCAATGT | 0.998 ± 0.02 |
| GGGGGAAGAA | 1 ± 0.028 |
| GTTGAGGGGG | 1.01 ± 0.047 |
| TTGAGTTTGC | 1 ± 0.051 |
| TCAATGTGTC | 1.03 ± 0.12 |
| GTAGGGGTAC | 1.47 ± 0.72 |
| GTGTATGTTG | 0.9976 ± 0.0067 |
| TGTTTGAGTT | 0.987 ± 0.039 |
| GGCGTTTTGA | 1.04 ± 0.021 |
| TTGGATTGGC | 0.978 ± 0.023 |
| TTCGTCTACA | 0.98 ± 0.021 |
| GATATGGGGA | 0.994 ± 0.044 |
| AGGGGCTTGT | 0.979 ± 0.024 |
| GGGGGCCAGC | 1.01 ± 0.02 |
| GAGGAGGATA | 0.953 ± 0.024 |
| GTATGGCTGG | 0.976 ± 0.044 |
| TGCTCGGGCA | 1.014 ± 0.0072 |
| CGCTATATCG | 1.09 ± 0.081 |
| AGTAGGGGAG | 1.01 ± 0.028 |
| TAAGGGTGCT | 1.039 ± 0.0037 |
| AAATTCGGGT | 0.981 ± 0.016 |
| CGGTTCAGTT | 1.036 ± 0.0022 |

| Sequence | switch fluorescence ratio |
| --- | --- |
| CATATTATGA | 0.987 ± 0.012 |
| TTGAAGCGGT | 1.09 ± 0.11 |
| ATAATGTGCA | 1.024 ± 0.0071 |
| AGAAAGGTCT | 1.026 ± 0.0085 |
| ATCAAGTGGT | 0.9701 ± 0.006 |
| CAAGTTGGCG | 0.995 ± 0.099 |
| TTATATCTTG | 1.0191 ± 0.00086 |
| ACTTATCCTT | 1.0512 ± 0.00011 |
| CGAAACCGAC | 2.17 ± 1.2 |
| GACATGTGGC | 1.03 ± 0.037 |
| CTAGGAGATA | 0.9736 ± 0.0014 |
| CAGGGCTCCC | 1.01 ± 0.02 |
| AGGGGTGTCT | 1.03 ± 0.017 |
| GGAACAGCGG | 1.001 ± 0.0016 |
| ACGTGCACGA | 1.01 ± 0.015 |
| TAAATACGGT | 1.03 ± 0.062 |
| CAGGCATGCG | 1.01 ± 0.037 |
| TGTGAAGAAA | 0.977 ± 0.06 |
| AAACACGACT | 1.07 ± 0.011 |
| AAGGTCACGC | 1.01 ± 0.024 |
| GAAAGGGTAC | 1.56 ± 0.65 |
| ACTGGAGGGT | 1.02 ± 0.044 |
| TGGTGGGACG | 1.06 ± 0.14 |
| GGACATGGCG | 0.943 ± 0.019 |
| TGAGGTTTGG | 1.02 ± 0.028 |

| Sequence | switch fluorescence ratio |
| --- | --- |
| TGGATATGTG | 1.01 ± 0.018 |
| TACGGGGAGT | 0.998 ± 0.026 |
| ATCTAAACTT | 1.02 ± 0.035 |
| AAAGGGCTGG | 0.984 ± 0.019 |
| CGGGTAGGGA | 1.01 ± 0.022 |
| TCTTAGGGTT | 1.02 ± 0.017 |
| CAAGAGTGGG | 1.01 ± 0.032 |
| GCACGTAGCG | 1.06 ± 0.046 |
| TTTTTTAGAG | 1.004 ± 0.0068 |
| GGTTTTCCTG | 0.975 ± 0.014 |
| GCATCTGTAG | 1 ± 0.067 |
| TTACGTCCGT | 1.04 ± 0.02 |
| AGATGAGCCG | 1.05 ± 0.11 |
| CGGGGTGTGG | 1.01 ± 0.033 |
| ATTGTTATCG | 1.02 ± 0.14 |
| TCGATCAACG | 0.9909 ± 0.0013 |
| TACAAAGATG | 1.025 ± 0.0056 |
| AGGAGGGGA | 1.03 ± 0.02 |
| AGAAAAAATG | 0.974 ± 0.05 |
| CAGTCGGGCT | 0.974 ± 0.02 |
| AGGGACACTA | 1.07 ± 0.028 |
| AAGGTCAGCT | 0.991 ± 0.016 |
| GGGTATAAGG | 0.989 ± 0.026 |
| AAATTGCCTG | 1.01 ± 0.047 |
| TTTTAGGGAT | 1.03 ± 0.021 |

| Sequence | switch fluorescence ratio |
| --- | --- |
| TTAGCCACTT | 1.06 ± 0.066 |
| CGATTTTGAG | 0.9768 ± 0.0076 |
| CGTGGGTCTT | 1.04 ± 0.03 |
| GATGATCACA | 0.951 ± 0.036 |
| AAAGGTGGTA | 1.02 ± 0.066 |
| GACTGGGGGA | 1.01 ± 0.025 |
| TATATTTTTA | 0.9819 ± 0.0079 |
| GAGGTTTCTT | 1.01 ± 0.0048 |
| AATTCCGGTC | 1.093 ± 0.0066 |
| GATATCCCGG | 0.987 ± 0.022 |
| AGGAGAGGAG | 1.02 ± 0.038 |
| TGATGGTGGC | 0.997 ± 0.017 |
| AAACCACCCA | 1.1 ± 0.019 |
| ATATGGCCGT | 0.994 ± 0.023 |
| GGTTAATGTT | 0.998 ± 0.026 |
| TGACTCGAGT | 1.01 ± 0.012 |
| AGTGTCGCTG | 1.008 ± 0.0012 |
| AAATGATCTA | 1.01 ± 0.029 |
| AAATGCAGGG | 1.01 ± 0.055 |
| TTAGATAGTA | 1.01 ± 0.043 |
| TGTGAGGGA | 1 ± 0.029 |
| TATGTGTTTC | 1.18 ± 0.25 |
| CAATGGTAGT | 0.9749 ± 0.0024 |
| CAGGGATAGG | 1.019 ± 0.0092 |
| AAGTTAGTGG | 1.01 ± 0.04 |

| Sequence | switch fluorescence ratio |
| --- | --- |
| CCTCTGGGGA | 1.82 ± 0.94 |
| TAGTGGTTTT | 0.975 ± 0.02 |
| ATAGGAAATA | 1.06 ± 0.035 |
| TATTTCATGT | 1.02 ± 0.044 |
| GCCGGGGATG | 1.007 ± 0.0024 |
| AGCGTGTTTA | 1.04 ± 0.036 |
| TCTTCTAGCT | 1.05 ± 0.019 |
| TCCCGCGGCG | 1.08 ± 0.041 |
| TTACGGGGCC | 0.977 ± 0.049 |
| ATTGAGCCTG | 0.991 ± 0.022 |
| TGTTGTGTTA | 0.9965 ± 5.6e-06 |
| CGGATCGTGG | 0.987 ± 0.021 |
| TAGAGAGGGC | 1.011 ± 0.0093 |
| TTCCAATTTT | 1.03 ± 0.027 |
| GAATAAAAGG | 0.973 ± 0.019 |
| CGATGGAGTG | 0.983 ± 0.027 |
| CTGGGGTAAG | 1.01 ± 0.042 |
| GAAATGGGTT | 0.957 ± 0.063 |
| GGCTTTTGCT | 0.9978 ± 0.0038 |
| AGAGGTGCAT | 1.02 ± 0.017 |
| AAAAGCAGGA | 1.05 ± 0.052 |
| AAATCCTTAT | 0.996 ± 0.063 |
| CTCCCCAGGG | 2.689 ± 0.013 |
| GCTAGGGGGA | 1.03 ± 0.05 |
| GGAACTTGGT | 0.928 ± 0.087 |
